Measurements published in the DeepSol protein solubility set.

test: soluble on expression in E. coli; label from the status in PepcDB or PDB records

Soluble on expression in E. coli, soluble:
MAKNDKINFSTPSGFPEFLPSEKRLELYLLDTIRRVYESYGFTPIETPAVERLEVLQAKGNQGDNIIYGLEPILPPNRQAEKDKSGDTGSEARALKFDQTVPLAAYIARHLNDLTFPFARYQMDVVFRGERAKDGRFRQFRQCDIDVVGREKLSLLYDAQMPAIITEIFEAVNIGDFVIRINNRKVLTGFFQSLNISETQIKSCISIIDNLEKIGEAKVKLELEKEGINPEQTQKIIDFVKIDGSVDDVLDKLKHLSQTLPESEQFNLGVSELETVITGVRNLGVPDKRFCIDLAIARGLNYYTGTVYETTLIGHEALGSICSGGRYEELVGTFIGEKMPGVGISIGLTRLISRLLKAGILNTLPPTPAQVVVVNMQDELMPTYLKVSQQLRQAGLNVITNFEKRQLGKQFQAADKQGIRFCVIIGADEAAAQKSSLKDLQSGEQVEVALADLAEEIKRRLT, MAKNPKDGESRTFLISVAAELAGMHAQTLRTYDRLGLVSPRRTSGGGRRYSLHDVELLRQVQHLSQDEGVNLAGIKRIIELTSQVEALQSRLQEMAEELAVLRANQRREVAVVPKSTALVVWKPRR, MALALSLSACSPPLRRTRRAGFRTSCSIFANPAQRAKRKLLELISEEDRGLRTQKDPKKRDEIVNAIESMTVIGRSSITTDDSLSATWRLLWTTEKEQLFIIEKAGLFGTTAGDVLQVIDVNKRILNNVITFPPDGVFFVRSDIDIASPQRVNFRFNSAVLRGKNWELPLPPFGKGWFENVYMDGEIRVAKDIRGDYLIVDRAPYNWTESFV, MALHPAHPGAIIGHEAVLALLPRLTAQTLLFSGPEGVGRRTVARWYAWGLNRGFPPPSLGEHPDVLEVGPKARDLRGRAEVRLEEVAPLLEWCSSHPRERVKVAILDSAHLLTEAAANALLKLLEEPPSYARIVLIAPSRATLLPTLASRATEVAFAPVPEEALRALTQDPELLRYAAGAPGRLLRALQDPEGYRARMARAQRVLKAPPLERLALLRELLAEEEGVHALHAVLKRPEHLLALERAREALEGYVSPELVLARLALDLET, MALKAQNTISGKEGRLFLDGEEMAHIKTFEANVEKNKSEVNIMGRRMTGHKTTGANGTGTATFYKVTSQFVLIMMDYVKKGSDPYFTLQAVLDDASSGRGTERVTLYDVNFDSPKIAGLDVDSEALEEEVPFTFEDFDVPEQLKSTFLEHHHHHH, MALLPFFDLTNFESDASEELGWLKYVGRVQTRVFPQHFKDNLEKVRKISETIDVIVDTTAELGPEACVNLLNAGALAILVNEEMLNELADISPNRLVLKTDTTDIGKIEKLSQVAGSIQWIGSAENYPPDFFERASKIIHKAVMPEGGGRTLYLEFPEQPSMEVLKSFSVHSVVPVLSSSFLTVKPAEEPKKLSLADLILISANTDREDGLFSTLVVNELGIALGLVYSSKESVAESLKTGTGVYQSRKRGLWYKGASSGAVQHLIHIDVDCDEDCLRFVVYQTGKGFCHLDTLHCFGQASGLCQLEKTLIDRKNNAPEGSYTARLFSDPKLLRAKIMEEAEELCDATTKENVIWEMADLMYFAITRCVGSGVSLNDISRHLDLKHRKVTRRKGDAKVAWQEKLKDKGGVANTSYTA, MALLRIFDAHCDALLKLWEDPAREYTDDPAIEANAVRLMEGGVRAQCFAIFVGPNIPFDQKFQVALQQAELFHEKILKKHPQFSFIERWDDLLTLDADQIGAILTLEGADPFGDDPTKLKTLYRLGVRSLGLTWNQANLCADGVGEPRGGGLTEWGKAVVSLNNEHHVLTDVSHLSERGFWDVIEYAQFPVATHSNAKAICKHRRNLTDAQLKALIEAGGFIGIVFHPHFLTGTDDASIDDVMKHIEHICSLGGQKHVGFGSNFDGIPCFVDGLEHAGRFQWFMDELLKRYDEELVRGFAWDNFLKATPISYVEGHHHHHH, MALSKRELDELKPWIEKTVKRVLGFSEPTVVTAALNCVGKGMDKKKAADHLKPFLDDSTLRFVDKLFEAVEEGRSSRHS, MALTNAQILAVIDSWEETVGQFPVITHHVPLGGGLQGTLHCYEIPLAAPYGVGFAKNGPTRWQYKRTINQVVHRWGSHTVPFLLEPDNINGKTCTASHLCHNTRCHNPLHLCWESADDNKGRNWCPGPNGGCVHAVVCLRQGPLYGPGATVAGPQQRGSHFVV, MANLPSSSGMFSRLLANVFNTTVASRCSASGRWWPQPEYELSKHRSRAPSMGIHRRTRLNVVDNSALGKEADTTGKLPYCIHVYKQGRRAKHMPHAELGDKILVAIRGQMRKAYVVGANTHVHYRKHGVPVTDQNMIVLLDEEGNPLGNRITAPIPTKLMANRGNVQFSKVLALANKFI

Soluble on expression in E. coli, not soluble:
MAKLDETLTMLKALTDAKGVPGNEREARDVMKTYIAPYADEVTTDGLGSLIAKKEGKSGGPKVMIAGHLDEVGFMVTQIDDKGFIRFQTLGGWWSQVMLAQRVTIVTKKGDITGVIGSKPPHILPSEARKKPVEIKDMFIDIGATSREEAMEWGVRPGDMIVPYFEFTVLNNEKMLLAKAWDNRIGCAVAIDVLKQLKGVDHPNTVYGVGTVQEEVGLRGARTAAQFIQPDIAFAVDVGIAGDTPGVSEKEAMGKLGAGPHIVLYDATMVSHRGLREFVIEVAEELNIPHHFDAMPGVGTDAGAIHLTGIGVPSLTIAIPTRYIHSHAAILHRDDYENTVKLLVEVIKRLDADKVKQLTFDE, MAKTTGILDKSLSRGKTEINLSTFAVLFSEMVLYAQNRSETVTDIHDKIASYGKQVGLRMFDIITLREKGYKRETKLLGMLMFIKSTVWKNLFGKEADKLERSNDDHCTYLLIEKDPMVNTYISVPRDKGVLNCAAFAAGIVEAILESASFKCKVTAHWHNGTAYVIQFDESVIARENSLLDSNR, MAKVTGTKVITNQVRLSFVHVLEPHAMEEGQEKKYSCMLIIPKDDKETLKAMKEAIKTAYEGAKGDKLKGVKFERLKTTLRDGDEEMDTEERPEFENAMFINVSSKTKPQVVKREDGVLVKTDDPDEVYSGVYAIASINFYAYSTAGNKGVTAGLNNILTLCKGDFLGGRANAESDFGDLEWEDEEDDMFS, MAKVTVILTSYNKPNTVGAAIESVLSQSFQDWELWIMDDASNEETQQVIDSYMLYPNVYYYNSQVKDEERHKSTRYATLINEAISRSTGDYLCYLTDDNYYLPERLQKMVQYLERYPSVDVVYSKQLVRTVDNQLITQAERIRPTKGTIRYAENIVDHCSVMHRRSLAEKVYETYGSYWNDDPICWHNGDAFFWNRLSAFALFYPINEVLDVCLKSPTSFQALNAFLPEYLPSGTLVKGLGADVYLIEDNHRRAITPTMFQQLHYREENVVHIPDPVLFKYKEGPAIDEHIWEQGKLFPNHRLIKASQEPHIYYVENHRKRHILTHKEFRLYKFRASEVVEVSRSFLDSIPTGPPISAHVNNQHPLPEGLLVRCGFKFYLSGNNRLYPIKSRVMKKLNLQMKNAVFLDSRAIGRYEQGETIEWKTNKCQPRFNTSSLEHHHHHH, MAKYEEAFKRQVVQEYLRGAVGTAGLSQKYGIGRSVIRRWINAWQRHGKSGLRKKHEAYSAEFKLTVLQRMWRDELSYQQVSAVFDLREAGGVSRWDRQYHEGGFDALQPRRKGGAPIMSQSKQDPQPAAQPAQDERSREDLLKENECLRAEVAYLKKLDALLRAKQQQAPKKKRKSLEHHHHHH, MALLDFFLSRKKNTANIAKERLQIIVAERRRSDAEPHYLPQLRKDILEVICKYVQIDPEMVTVQLEQKDGDISILELNVTLPEAEELK, MALLDKLLTPVMNQYKQPINKCLKVLNKKNNKKTGVAKQNACMDKVWGQALAIITKQFVNKVCTAVAKKMNAKEWNCCKTYVVKVVNVTPYKRFNIVK, MALNGTPALNVNWHGNYDVIVLGFGGAGASAARFAADNGAHVLVVDAAPFGREGGNTRYSAQHVVTGESLDKLTAYYQALGAPFSTPTKTLNAYLSGMSKIPAYFEKYLGIKAVSWKHDIKPGDAVAIKKTMAEYPELAGSDTIDFALVHKRDKDAALWKLLRQKVLERADNIDVWLDSRAQHLIQDPNTKVIQGVQIKRGERLLNIHANNGVVLAMGGFENNPELKQTYLHSDNLTPLGTLYNRGDGIKMAQEVDAKMWHMTNYESHGILPGLEHHHHHH, MALPESESARTEQALGRLVGSLCVVTAQQGELSSAMLASWVSQATFSPPGLTVAVAKERAIESLLHKNSCFVLNILQEGNHLGLMKHFLKPFAPGGDRFADVATETAENGAPILTESLAYLECRVQQRLECGDHWVLYAVTDRGALLKDGVTAVHHRKSGDHYLEHHHHHH, MALTVAKSALEAIREKGLGGFMRMIREEGFMRCLPDGNLLQTKIHNIGATLVGVDKFGNKYYQKLGDTQYGRHRWVEYASKDRYNASQVPAEWHGWLHFITDHTGDELLSLKPKRYGLEHKENFSGEGDAYIYHSKGHTLNPGQKNWTRYQSWVPTKTQ, MAMKDKLKNFFSMEDEEYEYEYIETERESHVEHEQKEKPAYNGNKPAGKQNVVSLQSVQKSSKVVLSEPRVYAEAQEIADHLKNRRADVVNLQRIQHDQAKRIVDFLSGTVYAIGGDIQRIGSDIFLCTPDNVDVSGTISELISEDEHQRWLEHHHHHH, MANDPYIQSFTCFDGTRRLLTAALPEVALALKQAVAGGAAGPLLVFDNATGRSVDLDIRGSSEDLLARLVVAGERQPAEEAAPRGRGRPKLGVVAREVTLLPRHWEWLAAQPGGASVALRKLVEEARRSQSGRARQAQERAYHFMNAMAGDLPGFEEATRALFAGDREGFAERIAGWPTDVREHAAWLASDGES, MANKLRNYTINFGPQHPAAHGVLRMILELDGEQIVRADPHIGLLHRGTEKLAETKTYLQALPYMDRLDYVSMMVNEQAYCLAVEKLVGIDVPIRAQYIRVMFAEVTRILNHLMGIGSHAFDIGAMTAILYAFRDREELMDLYEAVSGARMHAAYFRPGGVYRDLPDFMPKYEGSKFRNAKVLKQLNESREGTMLDFIDAFCERFPKNIDTLETLLTDNRIWKQRTVGIGVVSPERAMQKGFTGVMLRGSGVEWDVRKTQPYEVYDKMDFDIPVGVNGDCYDRYLCRMEEMRQSVRIIKQCSEWLRVNPGPVITTNHKFAPPKRTEMKTGMEDLIHHFKLFTEGMHVPEGETYTAVEHPKGEFGVYIISDGANKPYRLKIRAPGFAHLQGMDEMAKGHMLADVVAIIGTQDIVFGEVDR, MANKLTILASVVAASTAMMATSAQAADTTLDKVTKQGFLTCGVSTGLPGFSNPNSKGEWEGIDVEYCQALAAAVLGDKTKVKYVPLTAKERFTALQSGEIDVLSRNTTWTLHRDTALGLNFVGVNYYDGQGFMVKKDLGISSAKELDGASVCVQSGTTTELNLADYFRNSGMSYKPVVFDTAAQTSKGFDAGRCDVLTTDQSGLYALRLNLKDPSSAAVLPEIISKEPLGPVVRQGDDQWFNIAKWTLAAMVNAEEYGITSKNADEMLKSQDPNIKRILGVDGPKGKGLGIRDDWGYQVVKQVGNYGESFERTVGKGSPLEIARGVNALWNAGGFMYAPPIR, MANSAGSMAPKVFYISDGTAITAEVFGHAVLSQFPLEFESLTIPFVETLAKAENVKRQINDCFITTGERPLVFHSIVKPEIRDIIYSSEGLDYDFLNTFVAPLEQHLGVSASPVLHRTHGKANQGYEARIDAINFAMDNDDGQTMKHMDQADLILLGVSRCGKTPSSLYLSMQFGIKAANYPFTEDDMDNLKLPEALKRNKKKLFGLTIDPVRLHEIRQSRMENSRYSSLKQCRLEVKEVEMMFKRERIPYIDTTNHSVEEIATKILDVTGLERHMFLEHHHHHH
